From publication PMC6555819, “Comprehensive study of nuclear receptor DNA binding provides a revised framework for understanding receptor specificity”
Changes are numbered by the printed parent chain.

B1: NRC3_wobSeed44_DR1_A18G_o1 (dsDNA)
DNA 1: GCTGAATGAGGTTAAAGGTCAGGGAACGTGGCGTCGGCGATTGACAGCGTAGAATGAAGG
DNA 2: CCTTCATTCTACGCTGTCAATCGCCGACGCCACGTTCCCTGACCTTTAACCTCATTCAGC
B2: NRC3_wobSeed73_DR3_C28T_o1 (dsDNA)
DNA 1: GCCAAACTAGGTCACAGAGGTCAAAGTTCGTGCGTAGCGATTGACAGCGTAGAATGAAGG
DNA 2: CCTTCATTCTACGCTGTCAATCGCTACGCACGAACTTTGACCTCTGTGACCTAGTTTGGC
B3: NRC3_wobSeed32_DR1_A11G_o1 (dsDNA)
DNA 1: GCTCTTGTAGGTCAAAGGTTAAGAAAGCCGAAGCCTGCGATTGACAGCGTAGAATGAAGG
DNA 2: CCTTCATTCTACGCTGTCAATCGCAGGCTTCGGCTTTCTTAACCTTTGACCTACAAGAGC
B4: NRC3_random_hg19_59_o1 (dsDNA)
DNA 1: GCCAGTTCAAGACCAGCCTGGCCAACATGGTGAAACGCGATTGACAGCGTAGAATGAAGG
DNA 2: CCTTCATTCTACGCTGTCAATCGCGTTTCACCATGTTGGCCAGGCTGGTCTTGAACTGGC
B5: NRC3_wobSeed31_DR1_A13C_o1 (dsDNA)
DNA 1: GCTCATATAGGTCAAAGGTGAAAGTCGGTGTGGTAAGCGATTGACAGCGTAGAATGAAGG
DNA 2: CCTTCATTCTACGCTGTCAATCGCTTACCACACCGACTTTCACCTTTGACCTATATGAGC
B6: NRC3_wobSeed31_DR1_G20C_o1 (dsDNA)
DNA 1: B5 DNA 1 with C13A, G20C
DNA 2: B5 DNA 2 with C41G, G48T
B7: NRC3_wobSeed36_DR1_T20C_o1 (dsDNA)
DNA 1: GCCCGACTGGGGCAAAGGTCACCATACTCAGTACGAGCGATTGACAGCGTAGAATGAAGG
DNA 2: CCTTCATTCTACGCTGTCAATCGCTCGTACTGAGTATGGTGACCTTTGCCCCAGTCGGGC
B8: NRC3_random_hg19_6_o1 (dsDNA)
DNA 1: GCACTCAGAGAGTTGAAGTGATTTGCCCAAGACCACGCGATTGACAGCGTAGAATGAAGG
DNA 2: CCTTCATTCTACGCTGTCAATCGCGTGGTCTTGGGCAAATCACTTCAACTCTCTGAGTGC
B9: NRC3_wobSeed46_DR1_G21A_o1 (dsDNA)
DNA 1: GCTTACCAAGGTGAAAGGTCATTGATGCACGCCTTGGCGATTGACAGCGTAGAATGAAGG
DNA 2: CCTTCATTCTACGCTGTCAATCGCCAAGGCGTGCATCAATGACCTTTCACCTTGGTAAGC

Biological target: PXR:RXRa (Homo sapiens, UniProt O75469;P19793 full;full)
Sequence (O75469 whole entry, chain 1 of 2): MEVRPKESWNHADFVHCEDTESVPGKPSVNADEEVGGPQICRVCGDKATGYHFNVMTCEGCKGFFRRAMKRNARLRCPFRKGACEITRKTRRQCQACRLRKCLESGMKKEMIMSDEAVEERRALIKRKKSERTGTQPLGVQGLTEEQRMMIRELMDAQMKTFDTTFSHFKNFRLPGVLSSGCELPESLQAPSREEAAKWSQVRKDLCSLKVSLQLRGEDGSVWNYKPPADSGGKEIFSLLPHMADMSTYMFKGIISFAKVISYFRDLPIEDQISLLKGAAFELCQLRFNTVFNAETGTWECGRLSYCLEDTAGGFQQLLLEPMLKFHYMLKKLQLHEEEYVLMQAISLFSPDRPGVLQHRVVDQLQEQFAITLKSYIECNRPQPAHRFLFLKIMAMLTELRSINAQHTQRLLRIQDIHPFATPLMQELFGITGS
Sequence (P19793 whole entry, chain 2 of 2): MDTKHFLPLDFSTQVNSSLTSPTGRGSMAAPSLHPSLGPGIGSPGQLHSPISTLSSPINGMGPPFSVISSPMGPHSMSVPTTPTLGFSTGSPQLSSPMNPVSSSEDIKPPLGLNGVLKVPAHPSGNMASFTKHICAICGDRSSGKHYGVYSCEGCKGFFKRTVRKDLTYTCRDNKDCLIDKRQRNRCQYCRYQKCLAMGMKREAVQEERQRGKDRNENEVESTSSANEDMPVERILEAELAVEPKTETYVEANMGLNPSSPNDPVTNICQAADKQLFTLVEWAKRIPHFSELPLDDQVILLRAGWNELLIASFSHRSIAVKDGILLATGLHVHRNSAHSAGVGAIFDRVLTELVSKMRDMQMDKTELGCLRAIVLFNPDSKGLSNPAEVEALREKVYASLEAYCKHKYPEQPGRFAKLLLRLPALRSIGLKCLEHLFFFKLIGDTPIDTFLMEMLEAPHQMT
Assay: no ligand; PBM; 270 nM : 90 nM RXRa; PBS pH 7.4, 2% milk, 0.02% Triton X-100, 1 mM DTT, BSA, 0.4 mg/ml salmon testes DNA
Details: tags: His kept;His cleaved; copies: 1;1; label: surface-attached array probe
Summary of the method: (§1)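 Probes were double-stranded and carried 34-nt variable regions with direct-repeat seeds, single-nucleotide variants, half-site ablations and random human genomic background sequences, printed on custom Agilent 4×180K protein-binding microarrays. Arrays were incubated 1 h with ligand-free nuclear receptor dimers in PBS pH 7.4, 2% milk, 0.02% Triton X-100, 1 mM DTT, 0.2 mg/mL BSA and 0.4 mg/ml salmon testes DNA. Antibodies against each partner (one per run) detected binding, and scanned fluorescence was regression-normalized. Binding z-scores use the random background probes as reference.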

| Binder | binding signal |
| --- | --- |
| B1 | 6.68 PBM z-score against 500 random probes |
| B2 | 7.41 PBM z-score against 500 random probes |

Biological target: RARa:RXRa (Homo sapiens, UniProt P10276;P19793 full;full)
Sequence (P10276 whole entry, chain 1 of 2): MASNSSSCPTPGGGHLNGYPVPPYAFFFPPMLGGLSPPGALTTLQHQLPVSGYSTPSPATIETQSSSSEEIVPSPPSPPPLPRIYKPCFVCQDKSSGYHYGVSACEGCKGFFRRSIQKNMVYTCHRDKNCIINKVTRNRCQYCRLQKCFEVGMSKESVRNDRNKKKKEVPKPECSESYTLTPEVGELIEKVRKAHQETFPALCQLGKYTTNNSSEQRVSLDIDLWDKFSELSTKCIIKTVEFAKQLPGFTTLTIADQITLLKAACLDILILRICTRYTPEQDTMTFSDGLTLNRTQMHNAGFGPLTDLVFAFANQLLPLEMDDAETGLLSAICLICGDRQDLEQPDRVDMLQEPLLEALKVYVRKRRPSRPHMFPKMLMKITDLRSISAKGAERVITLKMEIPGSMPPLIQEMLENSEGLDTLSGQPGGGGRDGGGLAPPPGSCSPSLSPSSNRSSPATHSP
Sequence (P19793 whole entry, chain 2 of 2): as the sequence (P19793 whole entry, chain 2 of 2) above
Assay: as above
Details: tags: His kept;His cleaved; copies: 1;1; label: surface-attached array probe
Summary of the method: as §1

| Binder | binding signal |
| --- | --- |
| B1 | 9.15 PBM z-score against 500 random probes |
| B3 | 8.25 PBM z-score against 500 random probes |
| B4 | -0 PBM z-score against 500 random probes |
| B5 | 7.84 PBM z-score against 500 random probes |
| B6 | 7.77 PBM z-score against 500 random probes |
| B2 | 8.8 PBM z-score against 500 random probes |
| B7 | 7.41 PBM z-score against 500 random probes |
| B8 | 0.23 PBM z-score against 500 random probes |
| B9 | 8.37 PBM z-score against 500 random probes |

Biological target: VDR:RXRa (Homo sapiens, UniProt P11473;P19793 full;full)
Sequence (P11473 whole entry, chain 1 of 2): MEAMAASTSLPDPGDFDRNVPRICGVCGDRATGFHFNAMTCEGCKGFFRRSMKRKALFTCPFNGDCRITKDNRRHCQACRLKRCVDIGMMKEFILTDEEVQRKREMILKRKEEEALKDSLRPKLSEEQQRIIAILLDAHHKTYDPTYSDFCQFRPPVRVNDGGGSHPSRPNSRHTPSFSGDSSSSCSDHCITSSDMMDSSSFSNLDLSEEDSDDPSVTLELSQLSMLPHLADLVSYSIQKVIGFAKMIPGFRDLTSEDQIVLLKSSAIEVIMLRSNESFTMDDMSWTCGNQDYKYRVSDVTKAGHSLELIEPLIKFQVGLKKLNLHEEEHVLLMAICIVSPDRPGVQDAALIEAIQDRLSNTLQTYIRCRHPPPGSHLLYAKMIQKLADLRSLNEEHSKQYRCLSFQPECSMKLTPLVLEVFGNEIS
Sequence (P19793 whole entry, chain 2 of 2): as the sequence (P19793 whole entry, chain 2 of 2) above
Assay: as above
Details: tags: His kept;His cleaved; copies: 1;1; label: surface-attached array probe
Summary of the method: as §1

| Binder | binding signal |
| --- | --- |
| B8 | -0.28 PBM z-score against 500 random probes |

Biological target: PPARa:RXRa (Homo sapiens, UniProt Q07869;P19793 full;full)
Sequence (Q07869 whole entry, chain 1 of 2): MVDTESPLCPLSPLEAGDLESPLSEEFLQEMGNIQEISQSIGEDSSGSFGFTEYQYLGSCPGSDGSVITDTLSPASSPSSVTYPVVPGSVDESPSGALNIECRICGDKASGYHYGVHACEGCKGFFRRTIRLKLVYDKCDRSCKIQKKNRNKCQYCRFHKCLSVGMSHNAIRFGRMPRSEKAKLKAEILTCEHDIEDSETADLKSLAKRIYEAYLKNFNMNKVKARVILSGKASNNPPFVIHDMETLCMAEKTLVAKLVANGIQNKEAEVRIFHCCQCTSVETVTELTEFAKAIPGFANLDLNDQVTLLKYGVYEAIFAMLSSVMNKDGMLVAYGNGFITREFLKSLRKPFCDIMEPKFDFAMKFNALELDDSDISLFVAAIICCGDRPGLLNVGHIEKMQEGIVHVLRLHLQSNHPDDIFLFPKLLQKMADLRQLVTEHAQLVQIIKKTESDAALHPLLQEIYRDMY
Sequence (P19793 whole entry, chain 2 of 2): as the sequence (P19793 whole entry, chain 2 of 2) above
Assay: as above
Details: tags: GST kept;His cleaved; copies: 1;1; label: surface-attached array probe
Summary of the method: as §1

| Binder | binding signal |
| --- | --- |
| B1 | 6.96 PBM z-score against 500 random probes |
| B3 | 7.1 PBM z-score against 500 random probes |
| B5 | 6.9 PBM z-score against 500 random probes |
| B6 | 6.94 PBM z-score against 500 random probes |
| B7 | 6.53 PBM z-score against 500 random probes |
| B9 | 6.54 PBM z-score against 500 random probes |

Biological target: LXRa:RXRa (Homo sapiens, UniProt Q13133;P19793 full;full)
Sequence (Q13133 whole entry, chain 1 of 2): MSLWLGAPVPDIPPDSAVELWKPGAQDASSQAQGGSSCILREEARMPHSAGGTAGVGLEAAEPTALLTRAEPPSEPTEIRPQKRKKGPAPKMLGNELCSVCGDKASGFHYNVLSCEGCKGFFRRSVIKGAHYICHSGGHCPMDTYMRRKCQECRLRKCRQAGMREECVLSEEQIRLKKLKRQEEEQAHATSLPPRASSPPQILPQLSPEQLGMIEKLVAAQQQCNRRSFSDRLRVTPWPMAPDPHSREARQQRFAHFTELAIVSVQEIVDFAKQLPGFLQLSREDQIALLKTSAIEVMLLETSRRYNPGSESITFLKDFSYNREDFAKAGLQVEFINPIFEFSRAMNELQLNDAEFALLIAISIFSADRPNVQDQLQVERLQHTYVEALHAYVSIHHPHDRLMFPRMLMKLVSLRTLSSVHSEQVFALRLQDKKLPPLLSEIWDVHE
Sequence (P19793 whole entry, chain 2 of 2): as the sequence (P19793 whole entry, chain 2 of 2) above
Assay: as above
Details: tags: His kept;His cleaved; copies: 1;1; label: surface-attached array probe
Summary of the method: as §1

| Binder | binding signal |
| --- | --- |
| B4 | 0.49 PBM z-score against 500 random probes |

Biological target: RXRa (Homo sapiens, UniProt P19793)
Sequence (P19793 whole entry): as the sequence (P19793 whole entry, chain 2 of 2) above
Assay: no ligand; PBM; 180 nM; PBS pH 7.4, 2% milk, 0.02% Triton X-100, 1 mM DTT, BSA, 0.4 mg/ml salmon testes DNA
Details: tags: His cleaved; chain copies: 2; label: surface-attached array probe

| Binder | binding signal |
| --- | --- |
| B1 | 9.53 PBM z-score against 500 random probes |
| B3 | 9.29 PBM z-score against 500 random probes |
| B5 | 8.68 PBM z-score against 500 random probes |
| B6 | 8.7 PBM z-score against 500 random probes |
| B2 | 8.65 PBM z-score against 500 random probes |
| B7 | 8.25 PBM z-score against 500 random probes |
| B9 | 8.42 PBM z-score against 500 random probes |

Biological target: PPARg:RXRa (Homo sapiens, UniProt P37231;P19793 full;full)
Sequence (P37231 29-505, chain 1 of 2): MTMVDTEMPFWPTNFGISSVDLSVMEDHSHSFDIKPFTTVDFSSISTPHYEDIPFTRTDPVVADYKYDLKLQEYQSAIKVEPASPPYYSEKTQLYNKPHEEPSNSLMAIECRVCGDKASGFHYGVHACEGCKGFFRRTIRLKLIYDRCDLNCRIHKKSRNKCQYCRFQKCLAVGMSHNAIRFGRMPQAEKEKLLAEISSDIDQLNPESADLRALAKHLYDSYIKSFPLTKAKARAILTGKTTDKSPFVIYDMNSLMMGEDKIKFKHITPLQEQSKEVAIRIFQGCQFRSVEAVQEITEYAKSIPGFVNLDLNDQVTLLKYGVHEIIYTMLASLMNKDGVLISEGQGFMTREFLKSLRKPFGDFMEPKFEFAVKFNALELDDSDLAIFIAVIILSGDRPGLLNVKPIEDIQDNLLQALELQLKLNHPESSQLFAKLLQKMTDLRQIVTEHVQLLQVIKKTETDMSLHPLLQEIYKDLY
Sequence (P19793 whole entry, chain 2 of 2): as the sequence (P19793 whole entry, chain 2 of 2) above
Assay: no ligand; PBM; 180 nM : 90 nM RXRa; PBS pH 7.4, 2% milk, 0.02% Triton X-100, 1 mM DTT, BSA, 0.4 mg/ml salmon testes DNA
Details: tags: His kept;His cleaved; copies: 1;1; label: surface-attached array probe

| Binder | binding signal |
| --- | --- |
| B1 | 11.9 PBM z-score against 500 random probes |
| B3 | 12.7 PBM z-score against 500 random probes |
| B4 | 0.03 PBM z-score against 500 random probes |
| B5 | 11.9 PBM z-score against 500 random probes |
| B6 | 11.8 PBM z-score against 500 random probes |
| B2 | 10.8 PBM z-score against 500 random probes |
| B7 | 12.5 PBM z-score against 500 random probes |
| B8 | 0.15 PBM z-score against 500 random probes |
| B9 | 10.9 PBM z-score against 500 random probes |
